Measurements taken from article PMC10656488 (2023).

Target: HSPA5 protein (wild type, in vitro systems, ITC and SPR) (UniProt P20029 20-655)
Experiment: ITC

Chain of HSPA5 protein (wild type, in vitro systems, ITC and SPR) (P20029 20-655): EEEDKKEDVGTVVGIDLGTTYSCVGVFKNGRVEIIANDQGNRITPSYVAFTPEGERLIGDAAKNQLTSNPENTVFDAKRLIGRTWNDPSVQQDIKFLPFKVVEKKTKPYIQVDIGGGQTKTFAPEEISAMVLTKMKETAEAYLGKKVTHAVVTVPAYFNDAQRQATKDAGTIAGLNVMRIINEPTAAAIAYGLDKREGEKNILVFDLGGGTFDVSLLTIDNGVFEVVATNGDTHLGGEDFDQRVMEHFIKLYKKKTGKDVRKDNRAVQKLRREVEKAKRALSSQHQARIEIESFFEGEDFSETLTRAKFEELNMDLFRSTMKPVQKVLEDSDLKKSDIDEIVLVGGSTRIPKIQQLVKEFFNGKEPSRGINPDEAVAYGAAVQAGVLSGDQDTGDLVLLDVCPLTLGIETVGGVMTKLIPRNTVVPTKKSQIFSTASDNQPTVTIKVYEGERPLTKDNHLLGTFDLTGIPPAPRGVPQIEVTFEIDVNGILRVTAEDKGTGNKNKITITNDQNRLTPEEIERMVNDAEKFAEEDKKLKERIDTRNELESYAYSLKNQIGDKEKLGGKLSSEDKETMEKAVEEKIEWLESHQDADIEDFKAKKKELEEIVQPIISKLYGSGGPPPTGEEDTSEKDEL

Row | Binder | Kd
1 | SCNN1B protein (in vitro ubiquitination system, ITC and SPR) (natural protein) MPVKKYLLKCLHRLQKGPGYTYKELLVWYCNNTNTHGPKRIICEGPKKKAMWFLLTLLFACLVCWQWGVFIQTYLSWEVSVSLSMGFKTMNFPAVTVCNSSPFQYSKVKHLLKDLDELMEAVLEKILAPEASHSNTTRTLNFTIWNHTPLVLIDERNPDHPVVLNLFGDSHNSSNPAPGSTCNAQGCKVAMRLCSANGTVCTLRNFTSATQAVTEWYILQATNIFSQVLPQDLVGMGYAPDRIILACLFGTEPCSHRNFTPIFYPDYGNCYIFNWGMTEETLPSANPGTEFGLKLILDIGQEDYVPFLASTAGARLMLHEQRTYPFIREEGIYAMAGTETSIGVLVDKLQRKGEPYSPCTMNGSDVAIKNLYSVYNTTYSIQACLHSCFQDHMIRNCSCGHYLYPLPEGEKYCNNRDFPDWAYCYLNLQMSVTQRETCLSMCKESCNDTQYKMTISMADWPSEASEDWILHVLSQERDQSSNITLSRKGIVKLNIYFQEFNYRTIEESPANNIVWLLSNLGGQFGFWMGGSVLCLIEFGEIIIDFIWITIIKLVASCKGLRRRRPQAPYTGPPPTVAELVEAHTNFGFQPDTTSCRPHGEVYPDQQTLPIPGTPPPNYDSLRLQPLDTMESDSEVEAI | 860 nM
2 | ATAT1 protein (in vitro acetylation system, ITC and SPR) (enzyme) MEFPFDVDALFPERITVLDQHLRPPARRPGTTTPARVDLQQQIMTIVDELGKASAKAQHLPAPITSALRMQSNRHVIYILKDTSARPAGKGAIIGFLKVGYKKLFVLDDREAHNEVEPLCILDFYIHESVQRHGHGRELFQHMLQKERVEPHQLAIDRPSPKLLKFLNKHYNLETTVPQVNNFVIFEGFFAHQHRPPTSSLRATRHSRAAVADPIPAAPARKLPPKRAEGDIKPYSSSDREFLKVAVEPPWPLNRAPRRATPPAHPPPRSSSLGNSPDRGPLRPFVPEQELLRSLRLCPPHPTARLLLATDPGGSPAQRRRTRGTPWGLVAQSCHYSRHGGFNTSFLGTGNQERKQGEQEAEDRSASEDRVLLLDGSGEEPTQTGAPRAQAPPPQSWTVGGDIMNARVIRNLQERRSTRPW | 110 nM
